Measurements published in patent publication US20250376533A1 (FUTUREGEN BIOPHARMACEUTICAL BEIJING, published 2025).
Changes are numbered by the printed parent chain. Names and notes keep the numbering of the source. Where two headings read alike, the source gives them in different places.

B1: anti-PD-L1/CD40 bispecific antibody 1652 (bispecific antibody, human IgG2, kappa)
light: DIQMTQSPSSLSASVGDRVTITCRASQDIRNYLNWYQQKPGKAPKLLIYYTSRRDSGVPSRFSGSGSGTDYTLTISSLQPEDFATYFCQQGKTLPWTFGGGTKVEIKRTVAAPSVFIFPPSDEQLKSGTASVVCLLNNFYPREAKVQWKVDNALQSGNSQESVTEQDSKDSTYSLSSTLTLSKADYEKHKVYACEVTHQGLSSPVTKSFNRGEC
heavy: EVQLVESGGGLVQPGGSLRLSCAASGFTFSDYYMSWVRQAPGKGLEWVGFIRNKANAYTTEYAASVKGRFTISRDNSKNTLYLQMNSLRAEDTAVYYCARYGGLRQGWYFDVWGQGTLVTVSSASTKGPSVFPLAPCSRSTSESTAALGCLVKDYFPEPVTVSWNSGALTSGVHTFPAVLQSSGLYSLSSVVTVPSSNFGTQTYTCNVDHKPSNTKVDKTVERKCCVECPPCPAPPVAGPSVFLFPPKPKDTLMISRTPEVTCVVVDVSHEDPEVQFNWYVDGVEVHNAKTKPREEQFNSTFRVVSVLTVVHQDWLNGKEYKCKVSNKGLPAPIEKTISKTKGQPREPQVYTLPPSREEMTKNQVSLTCLVKGFYPSDIAVEWESNGQPENNYKTTPPMLDSDGSFFLYSKLTVDKSRWQQGNVFSCSVMHEALHNHYTQKSLSLSPGGGGGSGGGGSGGGGSGEVQLVESGGGLVQPGGSLRLSCAASGFTFDYYTQCWFRQAPGKEREWVSCISSSEGSTYYADSVKGRFTISRDNSKNTVYLQMNSLKTEDTAVYYCAARKGGPLTIENFFDYWGQGTQVTVSS
notes: First polypeptide chain = anti-CD40 light chain; second polypeptide chain = anti-CD40 heavy chain with the 1541 VHH joined to its C-terminus by a G4S linker
B2: anti-PD-L1/CD40 bispecific antibody 1655 (bispecific antibody, human IgG2, kappa)
light: B1 light with D28T, R30S, N31S, R53T, R54L, D55Q, F87Y, K92N, T93A, L94Y
heavy: B1 heavy with D31N, N79S, R105K, Q106I, V112L
notes: as for B1
B3: anti-PD-L1/CD40 bispecific antibody 1654 (bispecific antibody, human IgG2, kappa)
light: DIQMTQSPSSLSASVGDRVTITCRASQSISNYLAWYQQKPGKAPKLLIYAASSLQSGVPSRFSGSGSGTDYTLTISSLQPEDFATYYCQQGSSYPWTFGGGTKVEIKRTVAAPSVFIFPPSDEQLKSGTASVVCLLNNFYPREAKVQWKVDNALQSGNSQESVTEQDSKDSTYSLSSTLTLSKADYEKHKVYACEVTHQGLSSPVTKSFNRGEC
heavy: B1 heavy with D31N, N79S, S87R, R105K, Q106V, V112L
notes: as for B1
B4: anti-PD-L1 monoclonal antibody 1102 (antibody, human IgG1, V domains shown)
VH: EVQLVESGGGLVQPGGSLRLSCAASGFTFDYYTQCWFRQAPGKEREWVSCISSSEGSTYYADSVKGRFTISRDNAKNTVYLQMNSLRAEDTAVYYCAARKGGPLTIENFFDYWGQGTQVTVSS

Experiments:
[1] = target: T1, human CD40 antigen (ACROBiosystems) (human, UniProt P25942 21-193); experiment: ELISA, coated antigen
T1 construct: Bought antigen coated on ELISA plates; construct not described
T1 sequence (P25942 21-193 limits assumed): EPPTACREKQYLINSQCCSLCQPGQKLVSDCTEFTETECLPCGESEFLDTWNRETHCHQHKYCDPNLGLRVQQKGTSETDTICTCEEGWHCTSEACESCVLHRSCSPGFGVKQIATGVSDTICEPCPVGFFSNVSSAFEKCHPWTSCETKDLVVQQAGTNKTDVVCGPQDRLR
Description: (§1) The binding ability of bispecific antibody to human PD-L1 and human CD40, as well as the species specificity, was detected using an enzyme-linked immunosorbent assay (ELISA). The specific method is as follows: human PD-L1, cynomolgus PD-L1, rat PD-L1, mouse PD-L1, human CD40, cynomolgus CD40, rat CD40, and mouse CD40 antigens (all purchased from ACROBiosystems) were coated with 1 μg/mL carbonate buffer (pH=9.6) in an ELISA plate at 100 μL per well, followed by incubation at 4° C. overnight. The wells were washed 5 times with PBST. 300 μL/well of PBST containing 1% BSA was added to block the wells, and the plate was incubated at room temperature for 1 hour. The wells were washed 5 times with PBST. […] The wells were washed 5 times with PBST. […] The wells were washed 5 times with PBST. Colorimetric substrate TMB was added at 100 μL per well and allowed to develop color at room temperature for 10 minutes, followed by the addition of 1 M sulfuric acid to terminate the reaction. The OD_{450 nm} was read on a microplate reader to analyze the results, and the EC₅₀ was calculated using a 4-parameter fit binding curve.
(§2) These bispecific antibodies are not able to bind to rat PD-L1 and CD40 or mouse PD-L1 and CD40.

[2] = target: T2, cynomolgus CD40 antigen (ACROBiosystems) (cynomolgus, UniProt G7PG38 21-193); experiment: ELISA, coated antigen
T2 construct: Bought antigen coated on ELISA plates; construct not described
Description: as §1, §2

[3] = target: T3, rat CD40 antigen (ACROBiosystems) (rat, UniProt A6JXD6 20-193); experiment: ELISA, coated antigen
T3 construct: Bought antigen coated on ELISA plates; construct not described
T3 sequence: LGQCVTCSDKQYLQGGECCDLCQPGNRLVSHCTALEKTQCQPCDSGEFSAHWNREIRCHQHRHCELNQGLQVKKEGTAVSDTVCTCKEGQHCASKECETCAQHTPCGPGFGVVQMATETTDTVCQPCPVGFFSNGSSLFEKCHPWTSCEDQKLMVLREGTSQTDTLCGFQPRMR
Description: as §1, §2

[4] = target: T4, mouse CD40 antigen (ACROBiosystems) (mouse, UniProt P27512 24-193, limits assumed); experiment: ELISA, coated antigen
T4 construct: Bought antigen coated on ELISA plates; construct not described
T4 sequence (P27512 24-193 limits assumed): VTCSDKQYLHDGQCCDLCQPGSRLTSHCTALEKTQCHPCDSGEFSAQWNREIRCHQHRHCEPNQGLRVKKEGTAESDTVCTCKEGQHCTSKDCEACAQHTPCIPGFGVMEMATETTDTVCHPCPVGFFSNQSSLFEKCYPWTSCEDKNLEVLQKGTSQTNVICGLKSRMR
Description: as §1, §2

[5] = target: T5, human PD-L1 antigen (ACROBiosystems) (human, UniProt Q9NZQ7 19-238); experiment: ELISA, coated antigen
T5 construct: Bought antigen coated on ELISA plates
T5 sequence (Q9NZQ7 19-238 limits assumed): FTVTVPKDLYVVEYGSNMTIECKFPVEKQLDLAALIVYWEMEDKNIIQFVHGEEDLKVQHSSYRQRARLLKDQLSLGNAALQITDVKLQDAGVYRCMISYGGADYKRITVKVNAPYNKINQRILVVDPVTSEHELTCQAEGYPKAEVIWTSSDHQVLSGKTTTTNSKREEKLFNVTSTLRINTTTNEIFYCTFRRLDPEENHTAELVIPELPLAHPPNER
Description: as §1, §2

[6] = target: T6, cynomolgus PD-L1 antigen (ACROBiosystems) (cynomolgus, UniProt G7PSE7 19-238); experiment: ELISA, coated antigen
T6 construct: Bought antigen coated on ELISA plates; construct not described
T6 sequence (G7PSE7 entry or part of it): as the sequence (Q9NZQ7 19-238 limits assumed) above, with A33T, A34S, S62N, R68Q, Q82R, F173L, T185A, T192I, H215L counted along it
Description: as §1, §2

[7] = target: T7, rat PD-L1 antigen (ACROBiosystems) (rat, UniProt D4AE25 19-239); experiment: ELISA, coated antigen
T7 construct: Bought antigen coated on ELISA plates; construct not described
T7 sequence (D4AE25 entry or part of it limits assumed): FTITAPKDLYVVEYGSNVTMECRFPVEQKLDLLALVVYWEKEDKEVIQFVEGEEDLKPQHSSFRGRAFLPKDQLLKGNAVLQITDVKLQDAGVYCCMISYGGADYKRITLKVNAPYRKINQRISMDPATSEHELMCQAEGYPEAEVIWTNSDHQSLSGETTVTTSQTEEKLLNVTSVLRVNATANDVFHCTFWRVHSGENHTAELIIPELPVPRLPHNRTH
Description: as §1, §2

[8] = target: T8, mouse PD-L1 antigen (ACROBiosystems) (mouse, UniProt Q9EP73 19-239); experiment: ELISA, coated antigen
T8 construct: Bought antigen coated on ELISA plates; construct not described
T8 sequence (Q9EP73 19-239 limits assumed): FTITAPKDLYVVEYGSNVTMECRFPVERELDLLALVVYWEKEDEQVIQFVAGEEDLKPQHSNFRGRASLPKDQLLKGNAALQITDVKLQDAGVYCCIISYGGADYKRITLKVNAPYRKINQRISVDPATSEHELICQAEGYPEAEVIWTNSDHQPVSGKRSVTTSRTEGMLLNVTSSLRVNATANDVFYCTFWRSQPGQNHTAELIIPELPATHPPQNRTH
Description: as §1, §2

[9] = target: T9, CD40 on HEK-Blue CD40L cells (InvivoGen) (UniProt P25942 21-277, limits assumed); experiment: cell-based or functional assay
T9 sequence (P25942 21-277 limits assumed): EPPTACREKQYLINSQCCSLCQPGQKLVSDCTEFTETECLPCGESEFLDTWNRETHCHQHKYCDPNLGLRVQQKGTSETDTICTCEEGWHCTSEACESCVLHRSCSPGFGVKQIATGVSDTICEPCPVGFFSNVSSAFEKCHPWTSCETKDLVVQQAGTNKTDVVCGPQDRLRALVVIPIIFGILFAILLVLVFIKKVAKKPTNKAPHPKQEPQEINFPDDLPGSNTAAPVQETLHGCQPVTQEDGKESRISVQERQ

[10] = target: T9, CD40 on HEK-Blue CD40L cells (InvivoGen); experiment: flow cytometry, competition with 10 nM Biotin-CD40L on HEK-Blue CD40L cells
Description: The blocking effect of bispecific antibodies on CD40/CD40L binding was tested using HEK-Blue CD40L cells that highly express CD40. The specific method is as follows: HEK-Blue CD40L cells were collected and resuspended in pre-cooled PBS containing 2% FBS at a density of 1E7 cells/mL, and then added to a 96-well plate at 50 μL per well, i.e., 5E5 cells/well. Biotin-CD40L (FutureGen Biopharmaceutical) and serially diluted bispecific antibody were then added at 50 μL per well, with a final concentration of Biotin-CD40L of 10 nM, and the plate was incubated at 4° C. for 1 hour. The wells were washed twice with pre-cooled PBS. Streptavidin-PE (BioLegend, Cat. No. 405203) diluted in pre-cooled PBS containing 2% FBS was added, and the plate was incubated at 4° C. for 30 minutes. The wells were washed twice with pre-cooled PBS. The cells were then resuspended in pre-cooled PBS containing 2% FBS and assayed by flow cytometry.

[11] = target: T1, human CD40 antigen (ACROBiosystems); experiment: bridging ELISA: coated human CD40, serially diluted bispecific antibody, detection with biotin-labeled human PD-L1 and streptavidin-HRP, OD450
Description: Antigen human CD40 (purchased from ACROBiosystems) was coated with 1 μg/mL carbonate buffer (pH=9.6) in an ELISA plate at 100 μL per well, followed by incubation at 4° C. overnight. The wells were washed 5 times with PBST. 300 μL/well of PBST containing 1% BSA was added to block the wells, and the plate was incubated at room temperature for 1 hour. The wells were washed 5 times with PBST. […] The wells were washed 5 times with PBST. Biotin-labeled human PD-L1 (FutureGen Biopharmaceutical) diluted with PBST containing 1% BSA was added at 100 μL per well, and the plate was incubated at room temperature for 1 hour. The wells were washed 5 times with PBST. Streptavidin-HRP (BioLegend, Cat. No. 405210) diluted with PBST containing 1% BSA was added at 100 μL per well, and the plate was incubated at room temperature for 30 minutes. Colorimetric substrate TMB was added at 100 μL per well and allowed to develop color at room temperature for 10 minutes, followed by the addition of 1 M sulfuric acid to terminate the reaction. The OD_[…] was read on a microplate reader to analyze the results, and the EC₅₀ was calculated using a 4-parameter fit binding curve.

[12] = target: T5, human PD-L1 antigen (ACROBiosystems); experiment: ELISA, coated antigen; remark: listed apart in the source
Description: as §1, with “monoclonal” for “bispecific”, “PD-L1,” for “PD-L1 and human CD40,”, “PD-L1,” for “PD-L1, mouse PD-L1, human CD40, cynomolgus CD40, rat CD40,”, “PD-L1” for “CD40”
(§3) These monoclonal antibodies are not able to bind to rat PD-L1 or mouse PD-L1.

[13] = target: T6, cynomolgus PD-L1 antigen …; experiment: ELISA, coated antigen; remark: listed apart in the source
Description: as §1, with “monoclonal” for “bispecific”, “PD-L1,” for “PD-L1 and human CD40,”, “PD-L1,” for “PD-L1, mouse PD-L1, human CD40, cynomolgus CD40, rat CD40,”, “PD-L1” for “CD40”
as §3

[14] = target: T7, rat PD-L1 antigen (ACROBiosystems); experiment: ELISA, coated antigen; remark: listed apart in the source
Description: as §1, with “monoclonal” for “bispecific”, “PD-L1,” for “PD-L1 and human CD40,”, “PD-L1,” for “PD-L1, mouse PD-L1, human CD40, cynomolgus CD40, rat CD40,”, “PD-L1” for “CD40”
as §3

[15] = target: T8, mouse PD-L1 antigen (ACROBiosystems); experiment: ELISA, coated antigen; remark: listed apart in the source
Description: as §1, with “monoclonal” for “bispecific”, “PD-L1,” for “PD-L1 and human CD40,”, “PD-L1,” for “PD-L1, mouse PD-L1, human CD40, cynomolgus CD40, rat CD40,”, “PD-L1” for “CD40”
as §3

[16] = target: T5, human PD-L1 antigen (ACROBiosystems); experiment: BLI (Gator), antibody captured on PA probe, human PD-L1 in solution
Description: The interaction between monoclonal antibodies and antigens was detected using Gator, a label-free biomolecular interaction analyzer based on the principle of biolayer interferometry (BLI). The specific method is as follows: monoclonal antibody was diluted to 50 nM and added to a probe plate using a PA probe, allowing the monoclonal antibody to be captured by the PA probe. Human PD-L1, an antigen serially diluted starting from 200 nM, was then added for interaction with the […] captured by the PA probe. The interaction was analyzed by detecting the signal change of the reflected interference spectrum on the surface of the probe, and the binding kinetic constants of the antibody were finally calculated.

| Binder | EC50 [1] [nM] | EC50 [2] [nM] | binding result [3] | binding result [4] | EC50 [5] [nM] | EC50 [6] [nM] | binding result [7] | binding result [8] | CD40 agonistic activity (A)/(B) Ratio, EC50 without over with CHO/PD-L1 [9] | CD40 agonistic activity EC50 (nM) with CHO/PD-L1 (B), SEAP reporter [9] [nM] | CD40 agonistic activity EC50 (nM) without CHO/PD-L1 (A), SEAP reporter [9] [nM] | IC50 [10] [nM] | EC50 [11] [nM] | EC50 [12] [nM] | EC50 [13] [nM] | binding result [14] | binding result [15] | Kd [16] [nM] | koff [16] [s⁻¹] | kon [16] [M⁻¹ s⁻¹] |
| --- | --- | --- | --- | --- | --- | --- | --- | --- | --- | --- | --- | --- | --- | --- | --- | --- | --- | --- | --- | --- |
| B1 | 0.021 | 0.017 | no binding | no binding | 0.035 | 0.018 | no binding | no binding | 4.1 | 0.022 | 0.092 | 0.852 | 0.032 | – | – | – | – | – | – | – |
| B2 | 0.025 | 0.006 | no binding | no binding | 0.039 | 0.023 | no binding | no binding | 25.3 | 0.027 | 0.686 | 8.63 | 0.039 | – | – | – | – | – | – | – |
| B3 | 0.013 | 0.013 | no binding | no binding | 0.031 | 0.045 | no binding | no binding | 23.2 | 0.027 | 0.633 | 7.7 | 0.026 | – | – | – | – | – | – | – |
| B4 | – | – | – | – | – | – | – | – | – | – | – | – | – | 0.013 | 0.013 | no binding | no binding | 4.41 | 0.00451 | 1.02e+06 |
